Here are results for 1 molecule from US11110182B2, “Multifunctional RNA nanoparticles and methods for treating cancer and therapeutic resistant cancer” (University of Cincinnati, priority 2016, dated 2021).

The data set can be described thus: Biosafety during therapeutic treatment (body weight, organ H&E histopathology). It is filed as in vivo, athymic nude mice. Here is the method: FIG. 12A) During therapeutic treatment to orthotopic xenograft mouse models, the body weights of mice were recorded every three days. FIG. 12B) After therapeutic treatment, major organs were excised, fixed in 10% neutral formalin buffer, embedded in paraffin, sectioned and examined for histopathology by H&E staining. Scale bar: 100 μm.
Migration and metastasis assay. The 8-μm-pore-size polycarbonate membrane, which separates the two chambers of a 6.5-mm Transwell (Costar), was coated with or without 1:8 DMEM-diluted Matrigel (Corning). […] Cells at top side of membranes were removed completely, and cells at the bottom side were examined with an Olympus SZX12 microscope and counted. • Mammosphere culture and breast cancer stem cell analyses. […] After treatment with or without 1 μM 4-OHT for 7 days, mammosphere formation was recorded using an Axiovert S100 TV inverted microscope (Zeiss). […] After resuspension with 0.5 mL PBS buffer, CD44^+/CD24^−/low cell population was analyzed by flow cytometry. • Orthotopic xenograft breast tumor mouse model, in vivo imaging and anti-tumor therapy. […] The tumor volume was monitored every 3 days, and tumor size was calculated using the formula: volume=0.5×(width)^2×(length). […]

B1: pRNA-HER2apt-siMED1: 3-WJ pRNA nanoparticle bearing a HER2-targeting RNA aptamer and two different MED1 siRNAs; strands p1 SEQ ID NO: 3, p2 SEQ ID NO: 4 (nucleic acid)
chain 1: GGACAGUGAAAGUGAGUCAAAGGAUCAAUCAUGGCCAAAGAUGUUACUUUGAGAGCCUU
chain 2: GGCUCUCAAAGUAACAUCUAAGGCCAUGUGUAUGUGGGGGGAGGACGAUGCGGUCUGCUGUGCUUGAUAUGCCCCAGACGACUCGCCCCCCACAUACUUUGUUGAUCCAAUGACUCACUUUCACUGUCCUU
modifications: 2'-F modification; third strand may lack entry; pRNA-HER2apt-siMED1, p1; pRNA-HER2apt-siMED1, p2
B1: the “histopathology of heart, liver, spleen, lung and kidney” value (H&E staining after therapeutic treatment) was “no evidence of any apparent organ injury or disturbance”. Besides, under “entire treatment period, systemic administration”, the mouse body weight entry is on record as “no significant reduction”.
